This note sets out measurements from the nanobody polyreactivity screen of Harvey et al. (2022).

This data set is described as follows: yeast display, Sf9 membrane polyspecificity reagent, FACS + sequencing; frameworks hold sequencing errors. The method in brief:
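Sorting gates, low and high (top ~1%), were placed on anti-HA fluorescence to track expression and on streptavidin fluorescence to track reagent binding. A clone's polyreactivity label is taken from the gate it came out of. The reagent was 10% biotinylated, detergent-solubilized Sf9 membrane, applied for 1 hour at 4 °C to galactose-induced yeast display cells.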
“QVQLVESGGGVVQAGGSLRLSCAASGSTFYPYAMGWYRPAPVKERELVASISSRGGTTYYADSEKGRFTISRDNAKNTVYLQRNSLKPEDTAVYYCAATYKHLNPLGVFSGGYYYWGQGTQVTVSS”: the “polyreactivity (PSR sort gate)” value is “high polyreactivity”.
The same measure for “QVQLVESGGGVVQAGGSLRLSCAASGSTLSYYAMGLYIQAPGTERELVAAITSGVSTNYADSVKGRFTISRDNAKNTVYFQMNSLKPEDTAVYYCAKAYGGYHDDYDYWGQVTQVTVSS”: “low polyreactivity”; for “QVQLVESGGGVVQAGGSLRLSCAASGYIYLVYAMGWYRQATGKETELVAAISSGGSTYYADSVKGRFTISRDNAKNTVYLQMNSLKPEDTSVYYCATAGLALYAFRDDYWGQGTQVTVSS”: “low polyreactivity”.
In the case of “QVQLVESGGGVVQAGGSLRLSCAATGSTFWWYAMGWYRQAPGKERELVADITTGGSTNYADSVKGRFTISRDNAKNTVYLQMNSLKPEDTAVYYCNADGVTPYTWRLRYFKYHFDYWGQGTQVTVSW”, the “polyreactivity (PSR sort gate)” value is given as “low polyreactivity”.
Under “QVQLVESGGGVVQAGGSLRLSCDASGSTFDTYAMGWYRQAPGKERELVAGNTRRGGRTYYADSVKGRFTISRDNAKNTVYVQMNSLKPEDSAVYYCNALPQRPVGKRDHWGQGTQVTVSS” stands “high polyreactivity”; under “QVQLVESGGGVVQAGGSLRLSGAASGTLDGNAMGWYRPAPGKERELVAAISRCGGRTYYADSVKGRFTISRDNAKNTVYLQMNSQKPEDTAVYYCNTVSKPGYAYNYWGQGTQVTVSS”, “high polyreactivity”.
“QVQLVESGGGVVQAGGSLRLSSAASGISFAYYAMGWYRQAPGKERELVASITNTGSTYYADSVKGRFTISRDNAKNSVYLEMTSLKPEDTAVYYCNAVLSSNTKWRYPGDDWGQGTQVTVSS”: the “polyreactivity (PSR sort gate)” value is “low polyreactivity”.
The same measure for “QVQLVESGGGVVQAGGSLRLSSAASGYIFRAYAMGWYRQAPGKERELVAAISSRGGSTYFADSVKGRFTISRDNAKNTVYLQMNSLKPEDTAVYYCAAAYRQPYIGYGYWGQGTQVTVSS”: “high polyreactivity”; for “QVQLVESGGGVVQAGGSLRLSWAASGFIFAVYAMGWYRQSTGKERELVAAITFDGDTTYYADSVKGRFTISRDNANNTVYLQMKILKPDTAVYYCAAEYIKYLWYLHVDYWGQGTQVTVSS”: “low polyreactivity”.
Under “QVQLVESGGGVVQAGGSLRLTCAASGFTFARYATGWYRQAPGKERELVAAITYSGGRTYYADSVKGRFTISRDNAKNTVYLHMNSLKPEDTAVYYCAARQYGPRYTYYYWGQGTQVTVSS” stands “high polyreactivity”; under “QVQLVESGGGVVQAGGSLRLTCAASGRTFYVYAMGWYRQAPGKEREFVAAITSSGGSTYYADSVKGRFTISRDNAKNTVYLQMNSLNPEDTAVYYSDAEWSTPSYVGFADGFEYWGQGTQVTVSS”, “low polyreactivity”; under “QVQLVESGGGVVQAGGSLSLSCAASGFNFNYYAMGWYRPAPGKERELVAISRGGTTNYADSVKGRFTISRDNAKNTVYLQMNSLKPEDTAVYYCAVTGTYYGYSWQSRYKYDYWGQGTQVTVSS”, “high polyreactivity”.
Regarding “QVQLVESGGGVVQAGGTLRLSCAASGRIFSYYDMGWYRQAPGKERELVAAITWGGGATYYADSVKGRFTISRDNAKNTVYLLMNSLKPEDTAVYYCAADWSPSIWEYDYWGQGTQVTVSS”, the “polyreactivity (PSR sort gate)” value is reported as “low polyreactivity”.
Under “QVQLVESGGGYVQAGGSLRLSCAASGRTFLGYDMGWYRQAPGKERELVAAISSSGGSTYYADSVKGRFTISRDNAKNTVYLEMNSLKPEDTAVYYCAKRNRATGASGHRFGYWGQGTHVTVSS” stands “high polyreactivity”; under “QVQLVESGGLLVQAGGSLRLSCAASGSNSYRYDIVWYRQPPGKERELVATIRSGGSTNYADSVKGRFTISRDNAKNTVYLQMNSLKPEDTAVYYCASRLYARKKLHFSADSDYWGQGTQVSVSS”, “low polyreactivity”; under “QVQLVESGGPLVQAGGSLRLICAASGRTFYYNAKGWYRQAPGKDRELVAAITWSGGGTYYADSVKGRFTISRDNAKNTDYLQMNSLKPEDTAFYYCAAEDWSIEYEYWGQGTQVTVSS”, “high polyreactivity”.
As for “QVQLVESGGRIVQAGGSLRLRCAASGSTFHRYAMGRYRQAPGKERELVAAISRSGGSTYYADSVKGRFTISRDTAKNTVYLLMNSLKPVDTAVYYCAADRTGHGFGYWGQGTQVTVSS”, the “polyreactivity (PSR sort gate)” value is “high polyreactivity”.
On to “QVQLVESGGRKVQAGGSLRLSCAASGYTSSRYAMGRYRPAPGKERELVAAISGTGGSTNYADSVKGRFTISRDNAKNNVYLQKNSLKPEDTAVYYCAKRSRTYGTSPYYYWGQGTQVSVSS”, for which the “polyreactivity (PSR sort gate)” value was “high polyreactivity”.
Under “QVQLVESGGRLFQAGGSLRLSCAASGFTTSAYTKGWYRQAPGKERELVAVISARGGSTSYADSVKGRFTISRDNAKNPVYLQMKCRKPEDTAVFYCAARGRAHWHYDYWGHGTQVTVSS” stands “high polyreactivity”; under “QVQLVESGGRLFQAGGSLRLSCPASGFTFVYNAMGWYRQAPGKERELVATISSGGGRTYYADSVKGRFTISGDNAKNTVSLQKYSQKPEDTAVYYCATVRRTSSGERHEFWGQGTQVTVSS”, “low polyreactivity”.
Take “QVQLVESGGRLHQAGGSLRLICAASGSIIATYAMGWYRPAHGKERELVAAITSSDGSTNYADSVKGRFTISRDNAKNTVYLQMNCLTPEDTAVYYCAKDVWRHYLNLYDYWGQGTQVTVSS”: the “polyreactivity (PSR sort gate)” value was “low polyreactivity”.
The same measure for “QVQLVESGGRLVHAGGSLRLSCAASGSTFERNLMGWYSEAPGKERELVAAISRVSSTNYADSVKGRFTISRDNAKNTVYLQMNSVKPEDTAVYSCAADRAGSIMNYWGQGTQVTVSS”: “low polyreactivity”; for “QVQLVESGGRLVQAGASLRLSCAASGFTFGGYAMGWYRQPHGKQRELVAAIDSSGGRTYNADSVKGRFTISRDNAKNTVYLQMNSLKPEDTAVYYCNAVYGSDGYDYWGQGTQVTVSS”: “high polyreactivity”; for “QVQLVESGGRLVQAGGRLRLSSAATGLIFYANAMGWYRQAPGKQREFVADISNSGGSTYYADSVKGRFTISRDNAKNTVYLQMNSLKPEDTAVYYCNRVAYKRGYGVRYGGDYDYSGQGTQVTVSS”: “low polyreactivity”.
The same measure for “QVQLVESGGRLVQAGGSHRIRCAASGFIFWYYAMGWYRPAPGKERELVAGITTGGSTNYADSVKGRFTISRDNAKNTVYLEMNSLKPEDTAVYYCNADPTYQVGYDYWGQGTQVTVSS”: “low polyreactivity”.
For the sequence “QVQLVESGGRLVQAGGSLLLSCAASGRIFDKYAMGWYRQAPGKERELVAAITYIDSGTYYADSVKGRFTISRDNAKNTVYLQMNSLKPEDTAVYYCAARYPSDYDYWGQDTQVTVSS”, the “polyreactivity (PSR sort gate)” value is reported as “low polyreactivity”.
Under “QVQLVESGGRLVQAGGSLRFTCAASGSIFYSYAMGWYRQAPGKERELLAAINYSGSSTYYADSVKGRFTISRDNAKNTVYLQMNSLKPEDTAVYYCAAVIHSQYVDYYYWGQGTQVTVSS” stands “high polyreactivity”; under “QVQLVESGGRLVQAGGSLRIICAASGIIFFHYAMGWYRQAPGKERELVAAITCSGGSTYYADSVKGRFTISRDKAKNTVYLHMNSLKPEDTAVYYGNAVLHRRLYDYWGQGTQVTVSS”, “high polyreactivity”.
In the case of “QVQLVESGGRLVQAGGSLRLICAASGFIFWYYAMGWYRQAPGKERELVADISSGGSTNYADSVKGRFTISRDNAKNTVYLQMNSLKPEDTAVYYCAADTFRRDDYWGQGTQVTVSS”, the “polyreactivity (PSR sort gate)” value is recorded as “low polyreactivity”.
The same measure for “QVQLVESGGRLVQAGGSLRLICAASGLIFRAYAMGWYIQAPGKERELVAAISRNGGSTYYADSVKGRFTISRDNAKNTVYLQMNILKPEDTAGYYCNKVSRSSVYQDYYYWGQGTQVTVSS”: “high polyreactivity”.
Under “QVQLVESGGRLVQAGGSLRLRCAASGSIFGGYTMGRSRQAPGKERELVAAISRRGGNTYYADSVKGRFTISRDNAKNTVYLQMNSLKPEDTAVYYGAVRWPSARIPVKLDYWGQGTQVSVSS” stands “high polyreactivity”.
Under “QVQLVESGGRLVQAGGSLRLSCAACGGIIWYNTMGWYRQAPGKERELVAAISDSGGRTSYADSVKGRFTISRDNAKNTVYLQMNSLKPEDTAVYYCNVDYVVSRGFIYRVDYWGQGTQVTVSS” stands “low polyreactivity”; under “QVQLVESGGRLVQAGGSLRLSCAASAITFGHNAMGWYRQAPGKGRELVATISTRGGSTYADSVKGRFTISRDNAKNTVYLQMNSLKPEDTAVYYCAAPAGGYVPYFYEFDYWGQGTQVTVSS”, “low polyreactivity”.
For the sequence “QVQLVESGGRLVQAGGSLRLSCAASGFIFAYYSMGWYRKAPGKERELVAAISQSGTSTYYADSLKGRFTISRAKAKNTVYLQMNSLKPVDTAVYYCNAELRDLEYDYWGQGTQVTVSS”, the “polyreactivity (PSR sort gate)” value is given as “low polyreactivity”.
With “QVQLVESGGRLVQAGGSLRLSCAASGFIFEDYAMGWYRQAPGKERELVAAITWRGGSTYYADSVKGRFTISRDHAKTTVYLQMNSLKPEDTAVYYCAAEDYWGWRDYWGQGTQVTVSS”, the “polyreactivity (PSR sort gate)” value is listed as “high polyreactivity”.
For “QVQLVESGGRLVQAGGSLRLSCAASGFIFKLYGMGWYRQAPGKESEMVAAINTSGGRTYYADSVKGRFTISLDNAKNTVYLQMNSLKPEDTAVYYCNTYYSFYGGGYDHWVQGTQVTVSS”, the “polyreactivity (PSR sort gate)” value is on record as “high polyreactivity”.
The same measure for “QVQLVESGGRLVQAGGSLRLSCAASGFTFGHYAMGWSRPARGKEWELVAAIRWSGGSTYYADSVKGRFTISRDNAKNTVYLQMNSLKPEDTAVYYCAARRFDGFEYDYWGDGTQVTVSS”: “low polyreactivity”; for “QVQLVESGGRLVQAGGSLRLSCAASGFTFPNYAMGWYRQAPGKERELVAAISWSGTSTYYADSVKGRFTISRDNAKNTVYLQMNSLKPEDTAVYDCAAKYQRGGYYESYWLRTGYYWGQGTQVTVSS”: “high polyreactivity”; for “QVQLVESGGRLVQAGGSLRLSCAASGFTFSEYAMRWYRPAPGKVRELVAAINDGGGSTYYADSVKGRFTISRDNAKNTVYLQMNSLKPEDTAVYYCAVEQRLRYGYDYWGQGTQVTVSS”: “high polyreactivity”.
Under “QVQLVESGGRLVQAGGSLRLSCAASGFTFVEYAMGWYRQAPGKERELVAANSRSGSTYYADSVKGRFTISRDNSKNTVYLQMNSLKPEDTAVYYCATLVYRKQYSRYDYWGQGTQVTVSS” stands “high polyreactivity”.
On to “QVQLVESGGRLVQAGGSLRLSCAASGGIFYYNAMGRYRQAPGKERELVAAIRYRGGSTYYADSVKGRFTISRDNAKNTVYLQMNSLKPEDTAVYYCAADYYRSRYYYWGQGTQVTVSS”, for which the “polyreactivity (PSR sort gate)” value was “low polyreactivity”.
